Assay results taken from patent publication US20200024330A1.

Experiments:
Assay in all cases: cell-based or functional assay
[1] = target: HIV-1 ADA Env (pseudovirus) (HIV-1 ADA)
[2] = target: HIV-1 SF162 envelope protein (Env) on pseudotyped virus (HIV-1 isolate SF162) (UniProt P19550)
[3] = target: HIV-1 APV-13 envelope glycoprotein (Env) on pseudovirus (HIV-1)
[4] = target: HIV-1 Env of isolate 92BR020 (HIV-1)
[5] = target: HIV-1 JR-CSF Env F210A (HIV-1 JR-CSF) (UniProt P20871)
[6] = target: HIV-1 JR-CSF Env T202A (HIV-1 JR-CSF) (UniProt P20871)
[7] = target: HIV-1 JR-CSF Env S306A (HIV-1 JR-CSF) (UniProt P20871)
[8] = target: HIV-1 JR-CSF Env T303A (HIV-1 JR-CSF) (UniProt P20871)
[9] = target: HIV-1 JR-CSF Env T394A (HIV-1 (isolate JR-CSF)) (UniProt P20871)
[10] = target: HIV-1 JR-CSF Env R419A (HIV-1 (isolate JR-CSF)) (UniProt P20871)
[11] = target: HIV-1 JR-CSF Env N302A (HIV-1 JR-CSF) (UniProt P20871)
[12] = target: HIV-1 JR-CSF Env H330A (HIV-1 isolate JR-CSF) (UniProt P20871)
[13] = target: HIV-1 JR-CSF Env G324A (HIV-1 isolate JR-CSF) (UniProt P20871)
[14] = target: HIV-1 JR-CSF Env N396A (HIV-1 (isolate JR-CSF)) (UniProt P20871)
[15] = target: HIV-1 JR-CSF Env K421A (HIV-1 (isolate JR-CSF)) (UniProt P20871)
[16] = target: HIV-1 JR-CSF Env P299A (HIV-1 JR-CSF) (UniProt P20871)
[17] = target: HIV-1 JR-CSF Env T413A (HIV-1 (isolate JR-CSF)) (UniProt P20871)
[18] = target: HIV-1 JR-CSF Env I307A (HIV-1 JR-CSF) (UniProt P20871)
[19] = target: HIV-1 JR-CSF Env Q337A (HIV-1 isolate JR-CSF) (UniProt P20871)
[20] = target: HIV-1 JR-CSF Env R315A (HIV-1 isolate JR-CSF) (UniProt P20871)
[21] = target: HIV-1 JR-CSF Env S387A (HIV-1 (isolate JR-CSF)) (UniProt P20871)
[22] = target: HIV-1 JR-CSF Env S199A (HIV-1 JR-CSF) (UniProt P20871)
[23] = target: HIV-1 JR-CSF Env I420A (HIV-1 (isolate JR-CSF)) (UniProt P20871)
[24] = target: HIV-1 JR-CSF Env D417A (HIV-1 (isolate JR-CSF)) (UniProt P20871)
[25] = target: HIV-1 JR-CSF Env N241A (HIV-1 JR-CSF) (UniProt P20871)
[26] = target: HIV-1 JR-CSF Env S393A (HIV-1 (isolate JR-CSF)) (UniProt P20871)
[27] = target: HIV-1 JR-CSF Env E321aA (HIV-1 isolate JR-CSF) (UniProt P20871)
[28] = target: HIV-1 APV13 Env (pseudovirus) (HIV-1)
[29] = target: HIV-1 93UG077 Env (pseudovirus) (HIV-1)
[30] = target: HIV-1 APV6 Env (pseudovirus) (HIV-1)
[31] = target: HIV-1 Env of isolate MGRM-C-024 (subtype C), on pseudovirus (HIV-1)
[32] = target: HIV-1 Env of isolate MGRM-Chronic-B-024 (subtype B) (HIV-1)
[33] = target: HIV-1 Env of isolate 92RW026 (HIV-1)
[34] = target: HIV-1 envelope glycoprotein (Env) of isolate MGRM-Chronic-B-008, on pseudovirus (HIV-1)
[35] = target: HIV-1 envelope glycoprotein (Env) of isolate APV_17, on pseudovirus (HIV-1)
[36] = target: HIV-1 Env of isolate MGRM-F1-020 (clade F), on pseudovirus (HIV-1)
[37] = target: HIV-1 Env of isolate 92RW020 (HIV-1)
[38] = target: HIV-1 envelope glycoprotein (Env) of isolate APV_6, on pseudovirus (HIV-1)
[39] = target: HIV-1 Env of isolate MGRM-C-026 (subtype C), on pseudovirus (HIV-1)
[40] = target: HIV-1 Env of isolate 92RW021 (HIV-1)

Substance: 1443_C16 (PG16) (TCN-116) (antibody)
- IC50 (ug/ml), neutralization [1]: 0.004 µg/mL
- IC50, pseudovirus neutralization, 1 hour Virus/Ab Incubation [2]: > 50 µg/mL
- IC50, pseudovirus neutralization, 18 hour Virus/Ab Incubation [2]: > 50 µg/mL
- IC90 (pseudovirus neutralization) [3]: > 50 µg/mL

Substance: VRC01 (antibody)
- IC50 [4]: 0.29 µg/mL

Substance: PGT-122 (antibody)
- Fold IC50 increase relative to wild-type [5]: 2.6 fold
- Fold IC50 increase relative to wild-type [6]: 1.5 fold
- Fold IC50 increase relative to wild-type [7]: 0.5 fold
- Fold IC50 increase relative to wild-type [8]: 2.5 fold
- Fold IC50 increase relative to wild-type [9]: 0.6 fold
- Fold IC50 increase relative to wild-type [10]: 0.8 fold
- Fold IC50 increase relative to wild-type [11]: 1.1 fold
- Fold IC50 increase relative to wild-type [12]: 0.5 fold
- Fold IC50 increase relative to wild-type [13]: 12.5 fold
- Fold IC50 increase relative to wild-type [14]: 1.1 fold
- Fold IC50 increase relative to wild-type [15]: 1.2 fold
- Fold IC50 increase relative to wild-type [16]: 0.5 fold
- Fold IC50 increase relative to wild-type [17]: 0.8 fold
- Fold IC50 increase relative to wild-type [18]: 3.8 fold
- Fold IC50 increase relative to wild-type [19]: 0.5 fold
- Fold IC50 increase relative to wild-type [20]: 0.5 fold
- Fold IC50 increase relative to wild-type [21]: 0.9 fold
- Fold IC50 increase relative to wild-type [22]: 1 fold
- Fold IC50 increase relative to wild-type [23]: 3.5 fold
- Fold IC50 increase relative to wild-type [24]: 0.5 fold
- Fold IC50 increase relative to wild-type [25]: 1.4 fold
- Fold IC50 increase relative to wild-type [26]: 0.5 fold
- Fold IC50 increase relative to wild-type [27]: 0.4 fold

Substance: 4838_L06 (PGT-121) (antibody)
- neutralization IC80 [28]: 1.31 µg/mL
- neutralization IC90 [28]: 2.8 µg/mL
- neutralization IC95 [28]: 5.15 µg/mL
- neutralization IC90 [29]: 0.369 µg/mL
- neutralization IC95 [29]: 0.74 µg/mL
- neutralization IC80 [30]: 0.145 µg/mL
- neutralization IC95 [30]: 0.569 µg/mL

Substance: PGT-121 (antibody)
- Fold IC50 increase relative to wild-type [5]: 1.5 fold
- Fold IC50 increase relative to wild-type [6]: 1.2 fold
- Primary Neutralization Index (B cell culture well 4838 L06) [4]: 4.9
- Primary Neutralization Index (B cell culture well 4873 E03) [4]: 3.6
- Fold IC50 increase relative to wild-type [7]: 0.7 fold
- Fold IC50 increase relative to wild-type [8]: 0.7 fold
- Fold IC50 increase relative to wild-type [9]: 0.2 fold
- Fold IC50 increase relative to wild-type [10]: 1.8 fold
- Fold IC50 increase relative to wild-type [11]: 0.7 fold
- Fold IC50 increase relative to wild-type [12]: 0.8 fold
- Fold IC50 increase relative to wild-type [13]: 16.6 fold
- Fold IC50 increase relative to wild-type [14]: 1.3 fold
- Fold IC50 increase relative to wild-type [15]: 1.3 fold
- Fold IC50 increase relative to wild-type [16]: 0.2 fold
- Fold IC50 increase relative to wild-type [17]: 0.5 fold
- Fold IC50 increase relative to wild-type [18]: 3.7 fold
- Fold IC50 increase relative to wild-type [19]: 1 fold
- Fold IC50 increase relative to wild-type [20]: 0.9 fold
- Fold IC50 increase relative to wild-type [21]: 0.5 fold
- Fold IC50 increase relative to wild-type [22]: 0.8 fold
- Fold IC50 increase relative to wild-type [23]: 3.3 fold
- Fold IC50 increase relative to wild-type [24]: 0.7 fold
- Fold IC50 increase relative to wild-type [25]: 0.5 fold
- Fold IC50 increase relative to wild-type [26]: 0.6 fold
- Fold IC50 increase relative to wild-type [27]: 0.3 fold

Substance: 1496_C09 (PG9) (TCN-109) (antibody)
- IC50 (µg/mL), pseudovirus neutralization [31]: 0.227 µg/mL
- IC50 (µg/mL), pseudovirus neutralization [32]: 0.222 µg/mL
- IC50 [33]: 0.164 µg/mL
- IC50 (ug/ml), neutralization [1]: 0.2 µg/mL
- IC50, pseudovirus neutralization [34]: 8.78 µg/mL
- IC50, pseudovirus neutralization [35]: 34.8 µg/mL
- IC50 (µg/mL), single-round pseudovirus neutralization [36]: 6.4 µg/mL
- IC50 [37]: 0.141 µg/mL
- IC50, pseudovirus neutralization [38]: 0.181 µg/mL
- IC50 (µg/mL), pseudovirus neutralization [39]: 0.06 µg/mL
- IC50 [40]: 0.027 µg/mL

Substance: 1495_C14 (PGC14) (antibody)
- IC50, pseudovirus neutralization, 1 hour Virus/Ab Incubation [2]: 0.0069 µg/mL
- IC50, pseudovirus neutralization, 18 hour Virus/Ab Incubation [2]: < 0.0025 µg/mL

Substance: b12 (antibody)
- IC90 (pseudovirus neutralization) [3]: > 50 µg/mL

Substance: 5141_B17 (PGT-126) (antibody)
- IC50 [28]: 0.012 µg/mL
- IC80 [28]: 0.0411 µg/mL
- IC90 [28]: 0.084 µg/mL
- IC95 [28]: 0.162 µg/mL
- IC50 [29]: 0.0256 µg/mL
- IC80 [29]: 0.102 µg/mL
- IC90 [29]: 0.238 µg/mL
- IC95 [29]: 0.577 µg/mL
- IC50 [30]: 0.0249 µg/mL
- IC80 [30]: 0.0681 µg/mL
- IC90 [30]: 0.123 µg/mL
- IC95 [30]: 0.213 µg/mL

Substance: PGV04 (antibody)
- IC50 (µg/mL), pseudovirus neutralization [31]: > 50 µg/mL
- IC50 (µg/mL), pseudovirus neutralization [32]: 2.52 µg/mL
- IC50 [33]: 0.14 µg/mL
- IC50, pseudovirus neutralization [34]: 0.166 µg/mL
- IC50, pseudovirus neutralization [35]: 0.309 µg/mL
- IC50 (µg/mL), single-round pseudovirus neutralization [36]: 5.99 µg/mL
- IC50 [37]: 0.055 µg/mL
- IC50, pseudovirus neutralization [38]: 24.2 µg/mL
- IC50 (µg/mL), pseudovirus neutralization [39]: 0.303 µg/mL
- IC50 [40]: 0.038 µg/mL
